Data on three molecules can be found in patent US10363214B2, “Method for treating atrophic age related macular degeneration” (Allergan, Inc., priority 2008, dated 2019).

The conditions of series [1]: 1.25 to 2.5 mg aqueous bevacizumab into the vitreous cavity; animal and human studies; cited from earlier work.
The test system of series [2] is ARPE-19 cells. The experiment in a line: ARPE-19 cell viability (MTT) assay with polysorbate 80. The format is cell-based. The procedure:
An experiment was carried out to examine the toxicity of a polysorbate retinal penetrant enhancer to retinal pigment epithelial (“RPE”) cells. Thus, ARPE-19 cells (see Dunn K. et al., ARPE-19, a human retinal pigment epithelial cell line with differentiated properties, Exp Eye Res. 1996 Feb;62(2):155-69) were incubated in vitro in concentrations of polysorbate 80 ranging from 0% to 0.10% w/w and a cell viability assay was performed.
The protocol for this in vitro experiment was as follows: ARPE-19 cells (passage 11 to 23) were seeded the day prior to experimentation in 24 well-plates at 125.000 cells/well in DMEM:F12 medium supplemented with 10% FBS. Time course and dose response were simultaneously performed on ARPE-19 cells. Parameters of incubating solutions such as pH, osmolarity were measured for every concentration. Times of incubation were 24 h, 48 h, 72 h. One negative (non-treated) and one positive control (5 mM H2O2) were included. Non-treated condition was cell culture medium supplemented with serum. 5 mM H2O2 was prepared from 3% H2O2 stock solution (875 mM). Concentrations applied to cells were determined considering several parameters, such as • (a) commonly used concentration in formulation. • (b) limiting concentration to compound solubility. • (c) limiting concentration to applicable viscosity, osmolarity and pH values. In a first approach, the concentrations covered a wide range (Exp.1). After preliminary results, a second set of experiments (Exp.2 to 4) determined more accurately compound concentrations leading to inhibition of 50% of cell viability, based on cell viability assay and morphological aspect. […] Results from MTT assay were expressed as a percentage of cell viability calculated as follows: % cell viability=ODtest/ODcontrol×100. […] Gap concentration bringing to 50% cell viability was therefore determined. Morphological appearance was analyzed by semi-quantitative scoring ranging from 5 to 1, from normal to lethal phenotype respectively.

Series [3] has as its system wet AMD eye. The experiment in a line: Monthly intravitreal injections in wet AMD eye of patient (paper case examples). The format is in vivo, human. The text has this:
A person has age-related macular degeneration and cataracts in both eyes. […] The patient can complain of blurry vision and metamorphopsia in the right eye and examination can reveal visual acuity of 20/400 right eye, 20/32 left eye. Retinal examination can show subfoveal choroidal neovascularization (CNV) (right eye wet AMD) approximately 1 disc area in size with surrounding hemorrhage and edema in the right eye. The fellow left eye can show high-risk features for developing wet AMD such as soft, amorphic appearing drusen that included the fovea but no signs of choroidal neovascularization and can be confirmed by fluorescein angiography (left eye dry AMD).
A person can wake up with blurry vision in the left eye. They can have a history of glaucoma, s/p cataract removal with IOLs (intraocular lenses), and dry AMD in both eyes and can be taking Alphagan P eye drops. The patient's ophthalmologist can examine them and they can be diagnosed with left eye wet AMD and sent immediately to a retinal specialist. The vision can be 20/25 in the right eye and 20/200 in the left eye. Retinal examination can show dry changes in the right eye macula but high risk features such as large drusen and numerous pigmentary changes in the subfoveal region. The left eye macula can show a subfoveal CNV approximately 2 disc areas in size with surrounding macular edema and intraretinal hemorrhages. Fluorescein angiography can confirm the presence of left eye CNV predominantly classic in appearance. […] Since the patient was at high risk for developing CNV in their right eye, and the vision in the left eye may not appreciably improve over the 3 month period, they can receive an intravitrea injection into the right eye of 50 ul comprising 4.8 mg of ranibizumab incorporated into PLGA microspheres, to prophylax against the development of CNV in the right eye. Polysorbate 20 PLGA microspheres with an in vitro release rate of 5 ug/day can also be placed in the formulation to enhance retinal permeability. The microspheres can be placed in a partially cross-linked hyaluronic acid (HA) at a HA concentration of 2.1%. Such a cross-linked HA can be obtained from Allergan Medical (Irvine, Calif.) under the brand names Juvederm Ultra Plus, Juvederm 30, Captique, and Voluma.

Consider bevacizumab, for which, in series [1], the intraocular toxicity result is reported as “without significant intraocular toxicity”.

Turning to polysorbate 80, in series [2] (ARPE-19 cells, 24, 48 and 72 h incubation, also printed as 0.6 mg/ml, FIG. 1), the “polysorbate 80 concentrations associated with declining RPE cell viability” value is on record as “over 0.06%”. In series [2] (ARPE-19 cells, 24, 48 and 72 h incubation, also printed as 0.9 mg/ml, FIG. 1), the “polysorbate 80 concentrations associated with cell viabilities of less than 50%” value was more than 0.09%. Further, the “total maximum weight of polysorbate in the vitreous at one time” value in series [2] (assuming a vitreous volume of 4 ml in a human eye) was not above 3.6 mg.

B1: ranibizumab (antibody, chains of the INN, looked up, V domains shown)
VH: EVQLVESGGGLVQPGGSLRLSCAASGYDFTHYGMNWVRQAPGKGLEWVGWINTYTGEPTYAADFKRRFTFSLDTSKSTAYLQMNSLRAEDTAVYYCAKYPYYYGTSHWYFDVWGQGTLVTVSS
VL: DIQLTQSPSSLSASVGDRVTITCSASQDISNYLNWYQQKPGKAPKVLIYFTSSLHSGVPSRFSGSGSGTDFTLTISSLQPEDFATYYCQQYSTVPWTFGQGTKVEIK
modifications: Fab
In the case of B1, in series [3] (Example 1, within 4 months), the “edema and hemorrhage, right wet AMD eye” value is “resolution of the edema and hemorrhage”. Moreover, the “visual acuity, right wet AMD eye” value in series [3] (Example 1, within 4 months, baseline 20/400) is given as 20/125. Besides, in series [3] (Example 3, 3 month period, baseline 20/200), the “left eye visual acuity (wet AMD eye)” value is given as 20/100. The “retinal edema, left wet AMD eye” value in series [3] (Example 3, over a 3 month period) was “resolution of the retinal edema”.
